What was measured:
[1] = system: Dna2 D278A (nuclease-dead) (Mus musculus); experiment: bead pull-down; settings: DNA preloaded with Rpa, EMSA: 20 mM Tris-HCl pH 8.0, 80 mM NaCl, 0.3 mM TCEP, 0.2 mg/mL BSA, 2% glycerol, on ice 30 min, 0.075 or 0.3 nM 32P-DNA, 4% native PAGE, 1x TB, 4 C, scale: % Dna2 loading relative to reaction lacking Rpa
[2] = system: Dna2 D278A (nuclease-dead) (Mus musculus); experiment: EMSA; settings: Kd only in figure; EMSA: 20 mM Tris-HCl pH 8.0, 80 mM NaCl, 0.3 mM TCEP, 0.2 mg/mL BSA, 2% glycerol, on ice 30 min, 0.075 or 0.3 nM 32P-DNA; 4% native PAGE, 1x TB, 4 C; scale: affinity relative to 5'(dT)24

**Q.** For 5'-(dT)26 overhang DNA, biotinylated, which binding signal [1] is on record?
**A.** The binding signal was 45.

**Q.** For 5'(dT)8 overhang DNA, which binding signal [2] is on record?
**A.** Its binding signal is 0.01.

**Q.** With 5'(dT)6 overhang DNA as the substance, how does the binding signal [2] read?
**A.** Its binding signal is 0.01.

**Q.** Which binding signal ([1]; negligible loading) does the source give for 3'-(dT)26 overhang DNA, biotinylated here?
**A.** Its binding signal is 3.
